From patent US20240117043A1 (SHANGHAI JUNSHI BIOSCIENCES, published 2024)

T1: recombinant human HX1 hCD112R Fc (human, UniProt Q6DKI7 41-171, limits assumed)
T1 construct: Coated antigen of the ELISA (Suzhou Junmeng); also called human CD112R; not shown: Fc part
T1 sequence (looked up): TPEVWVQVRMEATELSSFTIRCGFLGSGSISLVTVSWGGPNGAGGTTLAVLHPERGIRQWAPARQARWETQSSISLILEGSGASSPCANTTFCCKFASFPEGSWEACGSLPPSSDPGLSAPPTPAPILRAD

T2: recombinant human TIGIT (His Tag) (human, UniProt Q495A1 22-141)
T2 construct: Coated antigen of the ELISA; not shown: His tag
T2 sequence (looked up): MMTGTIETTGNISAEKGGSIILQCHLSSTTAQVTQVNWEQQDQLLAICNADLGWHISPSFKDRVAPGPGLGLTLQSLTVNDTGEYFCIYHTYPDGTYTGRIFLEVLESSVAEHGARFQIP


Experiments:
[1] = biological target: T1, recombinant human HX1 hCD112R Fc; assay: ELISA, plate coated with recombinant human HX1 hCD112R Fc, detection with HRP anti-human IgG4 Fc; unit taken from the concentration axis [3a]
Experimental: 2. Procedures [0255] a. A 96-well plate was coated with 1.0 μg/mL recombinant human HX1 hCD112R Fc (Suzhou Junmeng) as the antigen at 100 μL/well and incubated at 37° C. for 1.5 h. [0256] b. The plate was washed 4 times with 300 μL/well 1×PBST, and 2% BSA was added at 200 μL/well. The plate was blocked at 37° C. for 1.5 h. [0257] c. The plate was washed 4 times with 300 μL/well 1×PBST, and serial dilutions of the bispecific antibodies JS-1,3,5,9 and a negative control: antibody (anti-KLH hIgG4) (initial concentration 3.0 μg/mL, 3-fold serially diluted to 12 concentration points, 100 μL/well) were added. The plate was incubated at 37° C. for 1 h. [0258] d. The plate was washed 4 times with 300 μL/well 1×PBST. [0259] e. 5000-fold diluted horseradish peroxidase (HRP)-conjugated mouse anti-human IgG4 Fc antibody (Southern Biotech, 9200-05) was added at 100 μL/well, and the plate was incubated at 37° C. for 1 h. [0260] f. The plate was washed 4 times with 300 μL/well 1×PBST. [0261] g. 0.1 mg/mL TMB was added at 100 μL/well, and after the plate was incubated at 37° C. for 15 min, a 2 M solution of hydrochloric acid was added at 100 μL/well to stop the reactions. […] The absorbance was measured at 450 nm/620 nm on a microplate reader, and data were analyzed using Graphpad Prism7.

[2] = biological target: T2, recombinant human TIGIT (His Tag); assay: ELISA, plate coated with recombinant human TIGIT (His Tag), detection with HRP anti-human IgG4 Fc; unit taken from the concentration axis [2a]
Experimental: 2. Procedures [0241] a. A 96-well plate was coated with 1.5 μg/mL recombinant human TIGIT (His Tag) (Suzhou Junmeng) as the antigen at 100 μL/well and incubated at 37° C. for 1.5 h. [0242] b. The plate was washed 4 times with 300 μL/well 1×PBST, and 2% BSA was added at 200 μL/well. The plate was blocked at 37° C. for 1.5 h. [0243] c. The plate was washed 4 times with 300 μL/well 1×PBST, and serial dilutions of the bispecific antibodies JS-1,3,5,9 and a negative control: antibody (anti-KLH hIgG4) (initial concentration 1.0 μg/mL, 3-fold serially diluted to 12 concentration points, 100 μL/well) were added. The plate was incubated at 37° C. for 1 h. [0244] d. The plate was washed 4 times with 300 μL/well 1×PBST. [0245] e. 5000-fold diluted horseradish peroxidase (HRP)-conjugated mouse anti-human IgG4 Fc antibody (Southern Biotech, 9200-05) was added at 100 μL/well, and the plate was incubated at 37° C. for 1 h. […] The plate was washed 4 times with 300 μL/well 1×PBST. [0247] g. 0.1 mg/mL TMB was added at 100 μL/well, and after the plate was incubated at 37° C. for 15 min, a 2 M solution of hydrochloric acid was added at 100 μL/well to stop the reactions. [0248] h. The absorbance was measured at 450 nm/620 nm on a microplate reader, and data were analyzed using Graphpad Prism7.

Row | EC50 [1] [µg/mL] | EC50 [2] [µg/mL] | Binder
1 | 0.00403 | 0.0858 | bispecific antibody JS-1 (IgG4) (bispecific antibody, Three-chain knob-into-hole format: anti-TIGIT Fab arm and anti-CD112R scFv arm, IgG4 Fc) heavy: QVQLVQSGAEVKKPGASVKVSCKTSGYAFTEYTMHWVRQAPGKGLEWMGGINPNTGGTTYNQKFQGRVTLTVDKSSSTAYMELSSLRSEDTVVYYCAKLLRLMYYFDYWGQGTLVTVSSASTKGPSVFPLAPCSRSTSESTAALGCLVKDYFPEPVTVSWNSGALTSGVHTFPAVLQSSGLYSLSSVVTVPSSSLGTKTYTCNVDHKPSNTKVDKRVESKYGPPCPPCPAPEFLGGPSVFLFPPKPKDTLMISRTPEVTCVVVDVSQEDPEVQFNWYVDGVEVHNAKTKPREEQFNSTYRVVSVLTVLHQDWLNGKEYKCKVSNKGLPSSIEKTISKAKGQPREPQVYTLPPCQEEMTKNQVSLWCLVKGFYPSDIAVEWESNGQPENNYKTTPPVLDSDGSFFLYSRLTVDKSRWQEGNVFSCSVMHEALHNHYTQKSLSLSLGK light: not shown DIVMTQSPDSLAVSLGERATINCKASQSVSNDVAWYQQKPGQPPKLLIYYVSHRFTGVPDRFSGSGSGTDFTLTISSLQAEDVAVYFCHQAYRSPWTFGCGTKLEIKGGGGSGGGGSGGGGSGGGGSEVQLVESGGGLVKPGGSLRLSCAASGFTFSSYHMSWVRQAPGKCLELVSAINSNGINTYYLDTVKGRFTISRDNAKNSLYLQMNSLRAEDTAVYYCARHEDYYGFAMDYWGQGTLVTVSSGGGGSGGGGSESKYGPPCPPCPAPEFLGGPSVFLFPPKPKDTLMISRTPEVTCVVVDVSQEDPEVQFNWYVDGVEVHNAKTKPREEQFNSTYRVVSVLTVLHQDWLNGKEYKCKVSNKGLPSSIEKTISKAKGQPREPQVCTLPPSQEEMTKNQVSLSCAVKGFYPSDIAVEWESNGQPENNYKTTPPVLDSDGSFFLVSRLTVDKSRWQEGNVFSCSVMHEALHNRFTQKSLSLSLGK
2 | 0.00402 | 0.106 | bispecific antibody JS-3 (IgG4) (bispecific antibody, Two-chain scFab/scFab knob-into-hole format, IgG4 Fc) chain 1: not shown chain 2: DIVMTQSPDSLAVSLGERATINCKASQSVSNDVAWYQQKPGQPPKLLIYYVSHRFTGVPDRFSGSGSGTDFTLTISSLQAEDVAVYFCHQAYRSPWTFGQGTKLEIKRTVAAPSVFIFPPSDEQLKSGTASVVCLLNNFYPREAKVQWKVDNALQSGNSQESVTEQDSKDSTYSLSSTLTLSKADYEKHKVYACEVTHQGLSSPVTKSFNRGECSGGGSGGGSEGGGSEGGGSEGGGSEGGGSGGGSGEVQLVESGGGLVKPGGSLRLSCAASGFTFSSYHMSWVRQAPGKGLELVSAINSNGINTYYLDTVKGRFTISRDNAKNSLYLQMNSLRAEDTAVYYCARHEDYYGFAMDYWGQGTLVTVSSASTKGPSVFPLAPCSRSTSESTAALGCLVKDYFPEPVTVSWNSGALTSGVHTFPAVLQSSGLYSLSSVVTVPSSSLGTKTYTCNVDHKPSNTKVDKRVESKYGPPCPPCPAPEFLGGPSVFLFPPKPKDTLMISRTPEVTCVVVDVSQEDPEVQFNWYVDGVEVHNAKTKPREEQFNSTYRVVSVLTVLHQDWLNGKEYKCKVSNKGLPSSIEKTISKAKGQPREPQVCTLPPSQEEMTKNQVSLSCAVKGFYPSDIAVEWESNGQPENNYKTTPPVLDSDGSFFLVSRLTVDKSRWQEGNVFSCSVMHEALHNRFTQKSLSLSLGK
